As usually defined, the Kd is the free concentration of one partner at which half of the binding sites on the other are occupied at equilibrium, for simple one-to-one binding. In general, kon refers to a measure of how fast the partners come together. A higher kon goes with faster complex formation.

To fix the notation:
B1: hBEW-9A8.9 (antibody, V domains shown)
VH: EVQLVQSGAEVKKPGASVKVSCKASGYTFTNYGMYWVRQAPGQGLEWMGWINTETGKPIYADDFKGRVTMTTDTSTSTAYMELRSLRSDDTAVYYCARVDYDGSFWFAYWGQGTLVTVSS
VL: EIVLTQSPDFQSVTPKEKVTITCRASESVSTVIHWYQQKPDQSPKLLIKGASNLESGVPSRFSGSGSGTDFTLTINSLEAEDAATYYCQQHWNDPPTFGQGTKLEIK
notes: Humanized IgG made from pHybE vectors in HEK293 cells
B2: hBDB-4G8.13 (antibody, V domains shown)
VH: EIQLVQSGTEVKKPGESLKISCKASGYTFTNYGMYWVKQMPGKGLEYMGWINTETGKPTYADDFKGRFTFSLDKSFNTAFLQWSSLKASDTAMYFCARTNYYYRSYIFYFDYWGQGTMVTVSS
VL: ETVLTQSPATLSVSPGERATLSCRASESVSTHMHWYQQKPGQAPRLLIYGASNLESGVPARFSGSGSGTDFTLTISSLQSEDFAVYFCQQSWNDPFTFGQGTRLEIK
notes: as for B1
B3: hBDB-4G8.14 (antibody, V domains shown)
VH: EIQLVQSGGGVVQPGGSLRLSCAASGYTFTNYGMYWVKQAPGKGLEYMGWINTETGKPTYADDFKGRFTFSLDTSKSTAYLQLNSLRAEDTAVYFCARTNYYYRSYIFYFDYWGQGTLVTVSS
VL: DTVLTQSPSTLSASPGERATISCRASESVSTHMHWYQQKPGQAPKLLIYGASNLESGVPSRFSGSRSGTDFTLTISSLQPEDFAVYFCQQSWNDPFTFGQGTKVEIK
notes: as for B1
B4: hBDB-4G8.15 (antibody, V domains shown)
VH: EVQLVESGGGLVQPGGSLRLSCAASGYTFTNYGMYWVKQAPGKGLEYMGWINTETGKPTYADDFKGRFTFSLDTSKSTAYLQMNSLRAEDTAVYFCARTNYYYRSYIFYFDYWGQGTLVTVSS
VL: DTQLTQSPSSLSASVGDRVTISCRASESVSTHMHWYQQKPGKAPKLLIYGASNLESGVPSRFSGSGSGTDFTLTISSLQPEDFATYFCQQSWNDPFTFGQGTKVEIK
notes: as for B1
B5: hBDB-4G8.8 (antibody, V domains shown)
VH: EVQLVQSGAEVKKPGASVKVSCKASGYTFTNYGMYWVRQAPGQGLEWMGWINTETGKPTYADDFKGRVTMTTDTSTSTAYMELRSLRSDDTAVYYCARTNYYYRSYIFYFDYWGQGTMVTVSS
VL: ATQLTQSPSLSASVGDRVTITCRASESVSTHMHWYQQKPGKQPKLLIYGASNLESGVPSRFSGSGSGTDFTLTISSLQPEDFATYFCQQSWNDPFTFGQGTKLEIK
notes: as for B1
B6: hBDB-4G8.9 (antibody, V domains shown)
VH: EVQLVQSGAEVKKPGASVKVSCKASGYTFTNYGMYWVRQAPGQGLEWMGWINTETGKPTYADDFKGRVTMTTDTSTSTAYMELRSLRSDDTAVYYCARTNYYYRSYIFYFDYWGQGTMVTVSS
VL: DTVLTQSPATLSLSPGERATLSCRASESVSTHMHWYQQKPGQAPRLLIYGASNLESGVPARFSGSGSGTDFTLTISSLEPEDFAVYFCQQSWNDPFTFGQGTKLEIK
notes: as for B1
B7: hBDB-4G8.11 (antibody, V domains shown)
VH: EIQLVQSGAEVKKPGASVKVSCKASGYTFTNYGMYWVRQAPGQGLEYMGWINTETGKPTYADDFKGRFTFTLDTSTSTAYMELRSLRSDDTAVYFCARTNYYYRSYIFYFDYWGQGTMVTVSS
VL: ATQLTQSPSLSASVGDRVTITCRASESVSTHMHWYQQKPGKQPKLLIYGASNLESGVPSRFSGSGSGTDFTLTISSLQPEDFATYFCQQSWNDPFTFGQGTKLEIK
notes: as for B1
B8: hBDB-4G8.12 (antibody, V domains shown)
VH: EIQLVQSGAEVKKPGASVKVSCKASGYTFTNYGMYWVRQAPGQGLEYMGWINTETGKPTYADDFKGRFTFTLDTSTSTAYMELRSLRSDDTAVYFCARTNYYYRSYIFYFDYWGQGTMVTVSS
VL: DTVLTQSPATLSLSPGERATLSCRASESVSTHMHWYQQKPGQAPRLLIYGASNLESGVPARFSGSGSGTDFTLTISSLEPEDFAVYFCQQSWNDPFTFGQGTKLEIK
notes: as for B1
B9: hBDB-4G8.1 (antibody, V domains shown)
VH: EVQLVQSGSELKKPGASVKVSCKASGYTFTNYGMYWVRQAPGQGLEWMGWINTETGKPTYADDFKGRFVFSLDTSVSTAYLQISSLKAEDTAVYYCARTNYYYRSYIFYFDYWGQGTMVTVSS
VL: AIQLTQSPSSLSASVGDRVTITCRASESVSTHMHWYQQKPGKAPKLLIYGASNLESGVPSRFSGSGSGTDFTLTISSLQPEDFATYYCQQSWNDPFTFGQGTKLEIK
notes: as for B1
B10: hBDB-4G8.7 (antibody, V domains shown)
VH: EVQLVQSGAEVKKPGASVKVSCKASGYTFTNYGMYWVRQAPGQGLEWMGWINTETGKPTYADDFKGRVTMTTDTSTSTAYMELRSLRSDDTAVYYCARTNYYYRSYIFYFDYWGQGTMVTVSS
VL: AIQLTQSPSSLSASVGDRVTITCRASESVSTHMHWYQQKPGKAPKLLIYGASNLESGVPSRFSGSGSGTDFTLTISSLQPEDFATYYCQQSWNDPFTFGQGTKLEIK
notes: as for B1
B11: hBDB-4G8.3 (antibody, V domains shown)
VH: EVQLVQSGSELKKPGASVKVSCKASGYTFTNYGMYWVRQAPGQGLEWMGWINTETGKPTYADDFKGRFVFSLDTSVSTAYLQISSLKAEDTAVYYCARTNYYYRSYIFYFDYWGQGTMVTVSS
VL: DTVLTQSPATLSLSPGERATLSCRASESVSTHMHWYQQKPGQAPRLLIYGASNLESGVPARFSGSGSGTDFTLTISSLEPEDFAVYFCQQSWNDPFTFGQGTKLEIK
notes: as for B1
B12: hBEW-9A8.11 (antibody, V domains shown)
VH: EVQLVQSGAEVKKPGASVKVSCKASGYTFTNYGMYWVRQAPGQGLEWMGWINTETGKPIYADDFKGRVTMTTDTSTSTAYMELRSLRSDDTAVYYCARVDYDGSFWFAYWGQGTLVTVSS
VL: DIQMTQSPSSLSASVGDRVTITCRASESVSTVIHWYQQKPGKAPKLLIYGASNLESGVPSRFSGSGSGTDFTLTISSLQPEDFATYYCQQHWNDPPTFGQGTKLEIK
notes: as for B1
B13: hBDB-4G8.10 (antibody, V domains shown)
VH: EIQLVQSGAEVKKPGASVKVSCKASGYTFTNYGMYWVRQAPGQGLEYMGWINTETGKPTYADDFKGRFTFTLDTSTSTAYMELRSLRSDDTAVYFCARTNYYYRSYIFYFDYWGQGTMVTVSS
VL: AIQLTQSPSSLSASVGDRVTITCRASESVSTHMHWYQQKPGKAPKLLIYGASNLESGVPSRFSGSGSGTDFTLTISSLQPEDFATYYCQQSWNDPFTFGQGTKLEIK
notes: as for B1
B14: hBDB-4G8.2 (antibody, V domains shown)
VH: EVQLVQSGSELKKPGASVKVSCKASGYTFTNYGMYWVRQAPGQGLEWMGWINTETGKPTYADDFKGRFVFSLDTSVSTAYLQISSLKAEDTAVYYCARTNYYYRSYIFYFDYWGQGTMVTVSS
VL: ATQLTQSPSLSASVGDRVTITCRASESVSTHMHWYQQKPGKQPKLLIYGASNLESGVPSRFSGSGSGTDFTLTISSLQPEDFATYFCQQSWNDPFTFGQGTKLEIK
notes: as for B1
B15: hBDB-4G8.5 (antibody, V domains shown)
VH: EIQLVQSGSELKKPGASVKVSCKASGYTFTNYGMYWVRQAPGQGLEYMGWINTETGKPTYADDFKGRFVFSLDTSVSTAYLQISSLKAEDTAVYFCARTNYYYRSYIFYFDYWGQGTMVTVSS
VL: ATQLTQSPSLSASVGDRVTITCRASESVSTHMHWYQQKPGKQPKLLIYGASNLESGVPSRFSGSGSGTDFTLTISSLQPEDFATYFCQQSWNDPFTFGQGTKLEIK
notes: as for B1
B16: hBEW-9A8.12 (antibody, V domains shown)
VH: EVQLVQSGAEVKKPGASVKVSCKASGYTFTNYGMYWVRQAPGQGLEWMGWINTETGKPIYADDFKGRVTMTTDTSTSTAYMELRSLRSDDTAVYYCARVDYDGSFWFAYWGQGTLVTVSS
VL: DTQLTQSPSSLSASVGDRVTITCRASESVSTVIHWYQQKPGKQPKLLIHGASNLESGVPSRFSGSGSGTDFTLTISSLQPEDFATYFCQQHWNDPPTFGQGTKLEIK
notes: as for B1
B17: hBDB-4G8.6 (antibody, V domains shown)
VH: EIQLVQSGSELKKPGASVKVSCKASGYTFTNYGMYWVRQAPGQGLEYMGWINTETGKPTYADDFKGRFVFSLDTSVSTAYLQISSLKAEDTAVYFCARTNYYYRSYIFYFDYWGQGTMVTVSS
VL: DTVLTQSPATLSLSPGERATLSCRASESVSTHMHWYQQKPGQAPRLLIYGASNLESGVPARFSGSGSGTDFTLTISSLEPEDFAVYFCQQSWNDPFTFGQGTKLEIK
notes: as for B1
B18: hBDB-4G8.4 (antibody, V domains shown)
VH: EIQLVQSGSELKKPGASVKVSCKASGYTFTNYGMYWVRQAPGQGLEYMGWINTETGKPTYADDFKGRFVFSLDTSVSTAYLQISSLKAEDTAVYFCARTNYYYRSYIFYFDYWGQGTMVTVSS
VL: AIQLTQSPSSLSASVGDRVTITCRASESVSTHMHWYQQKPGKAPKLLIYGASNLESGVPSRFSGSGSGTDFTLTISSLQPEDFATYYCQQSWNDPFTFGQGTKLEIK
notes: as for B1

T1 sequence (P15692 other isoform, or with tags, fused parts or gaps limits assumed): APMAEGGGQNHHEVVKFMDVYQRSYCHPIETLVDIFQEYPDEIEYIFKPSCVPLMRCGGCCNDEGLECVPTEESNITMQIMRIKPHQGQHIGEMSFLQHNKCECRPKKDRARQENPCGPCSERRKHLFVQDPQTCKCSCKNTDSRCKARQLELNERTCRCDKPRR

This assay addresses T1, human VEGF-A (human, UniProt P15692-4 27-191, limits assumed).
T1 construct: also called huVEGF-A
Nature of the assay: SPR (Biacore), antibody captured by anti-human Fc, VEGF-A injected. As for the experimental part: For example, approximately 9000 RU of goat anti-human Fc specific polyclonal antibody (Thermo Fisher Scientific Inc., Rockford, Ill.) diluted in 10 mM sodium acetate (pH 4.5) is directly immobilized across a CM5 research grade biosensor chip using a standard amine coupling kit according to manufacturer's instructions and procedures at 25 μg/ml. Unreacted moieties on the biosensor surface were blocked with ethanolamine. For kinetic analysis, rate equations derived from the 1:1 Langmuir binding model were fitted simultaneously to multiple antigen injections (using global fit analysis) with the use of Scrubber 2 (BioLogic Software), Biacore Biaevaluation 4.0.1 software or Biacore T100 Evaluation software. Purified antibodies or DVD-Ig molecules were diluted in running buffer for capture across goat anti-human Fc reaction surfaces. Antibodies or DVD-Ig molecules to be captured as a ligand (1 μg/ml) were injected over reaction matrices at a flow rate of 10 μl/minute. During the assay, all measurements were referenced against the capture surface alone (i.e., with no captured antibody or DVD-Ig molecule). […] The equilibrium dissociation constant KD (M) of the reaction between antibodies and the target antigen was then calculated from the kinetic rate constants by the following formula: KD=Koff/Kₒₙ. Binding was recorded as a function of time and kinetic rate constants were calculated.
(SPR reads the build-up and loss of mass on a sensor chip optically.)
With B1, the Kd came out at 820 pM and the kon was 1e+07 M⁻¹ s⁻¹.
For B2, binding was characterised by a dissociation constant (Kd) of 7.6 pM and the kon was determined as 2.2e+07 M⁻¹ s⁻¹.
In the case of B3, the Kd is 3.7 pM and the kon is 1.5e+07 M⁻¹ s⁻¹.
Take B4: the dissociation constant Kd worked out at 4.4 pM and the on-rate constant (kon) was 2e+07 M⁻¹ s⁻¹.
In turn, B5 returned a dissociation constant Kd of 47 pM and a kon of 1.8e+07 M⁻¹ s⁻¹.
For B6, in that order: 62 pM and 1.4e+07 M⁻¹ s⁻¹.
As to B7, the affinity, expressed as Kd, was 1.3 pM and the kon worked out at 2.6e+07 M⁻¹ s⁻¹.
The molecule B8 came in with a Kd of 1.2 pM and a kon of 2.6e+07 M⁻¹ s⁻¹.
As for B9, binding was characterised by a dissociation constant (Kd) of 5.8 pM and the association rate constant (kon) came to 1.8e+07 M⁻¹ s⁻¹.
In turn, B10 had a dissociation constant (Kd) of 34 pM and an on-rate (kon) of 3.7e+07 M⁻¹ s⁻¹.
With B11, the affinity, expressed as Kd, was 4.8 pM and the on-rate (kon) is 1e+07 M⁻¹ s⁻¹.
On the same counts, the results for B12 are 74 pM and 1.5e+07 M⁻¹ s⁻¹.
As to B13, the affinity, expressed as Kd, was 8.1 pM and the kon was 2.7e+07 M⁻¹ s⁻¹.
For B14, the Kd amounted to 3.6 pM and the kon was found to be 1.7e+07 M⁻¹ s⁻¹.
As to B15, the Kd was 1.6 pM and the kon is 2.5e+07 M⁻¹ s⁻¹.
Regarding B16, the Kd was determined as 15 pM and the kon came to 9.6e+06 M⁻¹ s⁻¹.
B17 yielded a Kd of 1.4 pM and an on-rate constant (kon) of 2.6e+07 M⁻¹ s⁻¹.
On to B18, for which the Kd was 5.5 pM and the kon came out at 2.7e+07 M⁻¹ s⁻¹.
